Assay results taken from IntAct's records for PubMed 23706742.

Target: pk3cb_mouse Pik3cb (UniProt Q8BTI9)

Ras-related C3 botulinum toxin substrate 1 (Mus musculus) (from UniProt P63001) I33D
effect of a mutation on the interaction: decreasing interaction strength
